# According to patent US20250339558A1:
# Target: CD20 (UniProt P11836)
# Experiment: cell-based or functional assay
# Sequence of UniProt P11836 (P11836 whole entry): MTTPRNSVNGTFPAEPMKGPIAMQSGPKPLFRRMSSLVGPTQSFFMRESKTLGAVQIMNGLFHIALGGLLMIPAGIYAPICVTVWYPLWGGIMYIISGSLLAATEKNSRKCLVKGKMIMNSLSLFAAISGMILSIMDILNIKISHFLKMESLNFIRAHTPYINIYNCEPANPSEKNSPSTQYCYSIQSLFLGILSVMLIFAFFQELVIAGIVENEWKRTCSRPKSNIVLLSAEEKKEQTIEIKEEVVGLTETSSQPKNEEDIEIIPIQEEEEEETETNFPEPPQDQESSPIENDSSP
substance,measurement,value
Rituximab (antibody),CDC Depletion Efficiency (complement-dependent cytotoxicity killing),60%
